Test results: US20060172357A1, “Detecting human antibodies in non-human serum” (Genentech, priority 2004, published 2006)

Key:
[1] = molecular target: full-length CD20 molecule (human) (UniProt P11836); test: ELISA, full-length CD20 coated at 1 µg/mL in PBS, detection goat anti-hu F(ab')2 HRP
[2] = molecular target: full-length CD20 molecule (human) (UniProt P11836); test: ELISA, full-length CD20 coated at 5 µg/mL in PBS, detection goat anti-hu F(ab')2 HRP
[3] = molecular target: full-length CD20 molecule (human) (UniProt P11836); test: ELISA, full-length CD20 coated at 1 µg/mL in PBS, detection sheep anti-hu IgG HRP (monkey adsorbed)
[4] = molecular target: full-length CD20 molecule (human) (UniProt P11836); test: ELISA, full-length CD20 coated at 5 µg/mL in PBS, detection sheep anti-hu IgG HRP (monkey adsorbed)
[5] = molecular target: T1, disulfide-cyclized mono-biotin CD20 35-mer; test: SPR Biacore 3000, method 1: Mono-CD20-35mer on streptavidin chip at 95 RU, 2H7-IgG injected, 1:1 model, apparent KD
T1 sequence (peptide, N-terminal biotin; C-terminal amide; disulfide-cyclized): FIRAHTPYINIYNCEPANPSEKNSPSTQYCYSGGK

[6] = molecular target: T2, biotinylated CD20 35-mer (streptavidin plate ELISA; mono- or bis-biotin form not stated); test: ELISA, streptavidin plate with CD20 35-mer at 2 µg/ml, 1 wash cycle between steps, goat anti-human IgG (H+L) HRP detection
T2 sequence (peptide, biotinylated (mono or bis not stated); C-terminal amide; disulfide-cyclized): T1 sequence (peptide, N-terminal biotin; C-terminal amide; disulfide-cyclized)

[7] = molecular target: T2, biotinylated CD20 35-mer (streptavidin plate ELISA; mono- or bis-biotin form not stated); test: ELISA, streptavidin plate with CD20 35-mer at 10 µg/ml, 1 wash cycle between steps, goat anti-human IgG (H+L) HRP detection
[8] = molecular target: T2, biotinylated CD20 35-mer (streptavidin plate ELISA; mono- or bis-biotin form not stated); test: ELISA, streptavidin plate with CD20 35-mer at 20 µg/ml, 1 wash cycle between steps, goat anti-human IgG (H+L) HRP detection
[9] = molecular target: T2, biotinylated CD20 35-mer (streptavidin plate ELISA; mono- or bis-biotin form not stated); test: ELISA, streptavidin plate with CD20 35-mer at 10 µg/ml, 2 wash cycles between steps, goat anti-human IgG (H+L) HRP detection
[10] = molecular target: T2, biotinylated CD20 35-mer (streptavidin plate ELISA; mono- or bis-biotin form not stated); test: ELISA, streptavidin plate with CD20 35-mer at 10 µg/ml, 3 wash cycles between steps, goat anti-human IgG (H+L) HRP detection
[11] = molecular target: T2, biotinylated CD20 35-mer (streptavidin plate ELISA; mono- or bis-biotin form not stated); test: ELISA, streptavidin plate with CD20 35-mer at 20 µg/ml, 2 wash cycles between steps, goat anti-human IgG (H+L) HRP detection
[12] = molecular target: Bis-biotin disulfide-cyclized CD20 35-mer; test: SPR Biacore 3000, method 2: Bis-CD20-35mer on streptavidin chip at 685 RU, 2H7-IgG injected, bivalent analyte model, apparent KD
[13] = molecular target: disulfide-cyclized Bis-biotin CD20 51-mer; test: SPR Biacore 3000, method 2: Bis-CD20-51mer on streptavidin chip at 1037 RU, 2H7-IgG injected, bivalent analyte model, apparent KD
Chain of disulfide-cyclized Bis-biotin CD20 51-mer (peptide, as listed by the source): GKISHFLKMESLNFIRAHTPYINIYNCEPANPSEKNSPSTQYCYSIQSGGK

rhuMAb2H7 [14] = test: bridging ELISA, sheep anti-human IgG capture and detection; blocking D, sample diluent D, detection diluent A
rhuMAb2H7 [15] = test: bridging ELISA, sheep anti-human IgG capture and detection; blocking D, sample diluent D, detection diluent D
rhuMAb2H7 [16] = test: bridging ELISA, sheep anti-human IgG capture and detection; blocking D, sample diluent D1, detection diluent D1
rhuMAb2H7 [17] = test: direct sandwich ELISA, sheep anti-human IgG capture, goat anti-human IgG (H+L) HRP detection diluted in Buffer A
rhuMAb2H7 [18] = test: direct sandwich ELISA, sheep anti-human IgG capture, goat anti-human IgG (H+L) HRP detection diluted in Buffer D
rhuMAb2H7 [19] = test: direct sandwich ELISA, sheep anti-human IgG capture, goat anti-human IgG HRP detection, buffer A in all steps, n = 8
rhuMAb2H7 [20] = test: direct sandwich ELISA, sheep anti-human IgG capture, goat anti-human IgG HRP detection, buffer B in all steps, n = 8
rhuMAb2H7 [21] = test: bridging ELISA, sheep anti-human IgG capture and detection; blocking D1 + 0.2% fish gelatin, other diluents not given
rhuMAb2H7 [22] = test: bridging ELISA, sheep anti-human IgG capture and detection; D1 + 0.2% mouse IgG in blocking, sample and detection buffers
rhuMAb2H7 [23] = test: bridging ELISA, sheep anti-human IgG capture and detection; D1 + 0.2% donkey IgG in blocking, sample and detection buffers
rhuMAb2H7 [24] = test: bridging ELISA, sheep anti-human IgG capture and detection; D1 + 0.2% rabbit IgG in blocking, sample and detection buffers
rhuMAb2H7 [25] = test: direct sandwich ELISA, sheep anti-human IgG capture, goat anti-human IgG (H+L) HRP detection diluted in Buffer D - BGG (D1)
rhuMAb2H7 [26] = test: direct sandwich ELISA, sheep anti-human IgG capture, goat anti-human IgG HRP detection, buffer E (HEPES) in all steps, n = 8
rhuMAb2H7 [27] = test: direct sandwich ELISA, sheep anti-human IgG capture, goat anti-human IgG HRP detection, buffer C (with BGG) in all steps, n = 8
rhuMAb2H7 [28] = test: direct sandwich ELISA, sheep anti-human IgG capture, goat anti-human IgG HRP detection, buffer D (with BGG) in all steps, n = 8
rhuMAb2H7 [29] = test: direct sandwich ELISA, sheep anti-human IgG capture, goat anti-human IgG (H+L) HRP detection diluted in Buffer A + 0.2% BGG (A2)
rhuMAb2H7 [30] = test: direct sandwich ELISA, sheep anti-human IgG capture, goat anti-human IgG (H+L) HRP detection diluted in Buffer A + 5 mM EDTA (A3)
rhuMAb2H7 [31] = test: direct sandwich ELISA, sheep anti-human IgG capture, goat anti-human IgG (H+L) HRP detection diluted in Buffer A + 0.25% CHAPS (A4)
rhuMAb2H7 [32] = test: direct sandwich ELISA, sheep anti-human IgG capture, goat anti-human IgG (H+L) HRP detection diluted in Buffer A + 0.35 M NaCl (A1)

Chain of rhuMAb2H7 (antibody) (VH): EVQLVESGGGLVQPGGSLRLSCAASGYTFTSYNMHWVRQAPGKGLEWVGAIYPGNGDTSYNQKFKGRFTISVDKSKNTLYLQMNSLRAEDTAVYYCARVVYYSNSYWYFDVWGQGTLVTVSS
Chain of rhuMAb2H7 (antibody) (VL): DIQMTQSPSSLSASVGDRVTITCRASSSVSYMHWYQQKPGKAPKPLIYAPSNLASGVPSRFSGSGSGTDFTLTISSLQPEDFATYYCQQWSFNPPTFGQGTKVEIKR
Chain of full-length CD20 molecule (human) (P11836 whole entry): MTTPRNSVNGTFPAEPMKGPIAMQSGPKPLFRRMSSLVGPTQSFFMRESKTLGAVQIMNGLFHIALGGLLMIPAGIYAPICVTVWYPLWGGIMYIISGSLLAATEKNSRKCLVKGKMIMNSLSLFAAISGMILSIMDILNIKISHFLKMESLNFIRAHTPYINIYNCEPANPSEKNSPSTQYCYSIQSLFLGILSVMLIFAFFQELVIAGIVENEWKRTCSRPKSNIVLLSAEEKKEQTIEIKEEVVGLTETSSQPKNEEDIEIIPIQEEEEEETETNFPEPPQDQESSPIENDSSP

## Rituxan (antibody)
[1]
  signal of 247 ng/ml of Rituxan (O.D.450 nm): 0.065 O.D.
[2]
  signal of 247 ng/ml of Rituxan (O.D.450 nm): 0.166 O.D.
[3]
  signal of 247 ng/ml of Rituxan (O.D.450 nm): 0.012 O.D.
[4]
  signal of 247 ng/ml of Rituxan (O.D.450 nm): 0.023 O.D.

## rhuMAb2H7 (antibody)
[5]
  Kd: 41700 nM
[6]
  O.D. (450-650 nm) for 160 µg/ml of rhuMAb2H7: 0.063 O.D.
[7]
  O.D. (450-650 nm) for 160 µg/ml of rhuMAb2H7: 0.063 O.D.
[8]
  O.D. (450-650 nm) for 160 µg/ml of rhuMAb2H7: 0.055 O.D.
[9]
  O.D. (450-650 nm) for 160 µg/ml of rhuMAb2H7: 0.009 O.D.
[10]
  O.D. (450-650 nm) for 160 µg/ml of rhuMAb2H7: 0.009 O.D.
[11]
  O.D. (450-650 nm) for 160 µg/ml of rhuMAb2H7: 0.01 O.D.
[12]
  Kd: 500 nM
[13]
  Kd: 110 nM

## sheep anti-human IgG heavy (H) and light (L) chain, cynomolgus monkey serum adsorbed (Cat #CUS1684, The Binding Site) (antibody)
rhuMAb2H7 [14]
  Signal of 256 ng/ml of 2H7: 1.6 O.D.
rhuMAb2H7 [15]
  Signal of 2H7 at 240 ng/ml: 1.15 O.D.
rhuMAb2H7 [16]
  Signal of 2H7 at 240 ng/ml: 1.04 O.D.
rhuMAb2H7 [17]
  240 ng/ml 2H7 (O.D. 450-650 nm): 2.23 O.D.
rhuMAb2H7 [18]
  240 ng/ml 2H7 (O.D. 450-650 nm): 0.962 O.D.
rhuMAb2H7 [19]
  Signal, O.D. 450-650 nm at 240 ng/ml rhuMAb2H7: 2.04 O.D.
rhuMAb2H7 [20]
  Signal, O.D. 450-650 nm at 240 ng/ml rhuMAb2H7: 1.91 O.D.
rhuMAb2H7 [21]
  Signal of 2H7 at 240 ng/ml: 0.34 O.D.
rhuMAb2H7 [22]
  Signal of 2H7 at 240 ng/ml: 0.09 O.D.
rhuMAb2H7 [23]
  Signal of 2H7 at 240 ng/ml: 0.38 O.D.
rhuMAb2H7 [24]
  Signal of 2H7 at 240 ng/ml: 0.06 O.D.
rhuMAb2H7 [25]
  240 ng/ml 2H7 (O.D. 450-650 nm): 1.65 O.D.
rhuMAb2H7 [26]
  Signal, O.D. 450-650 nm at 240 ng/ml rhuMAb2H7: 2.1 O.D.
rhuMAb2H7 [27]
  Signal, O.D. 450-650 nm at 240 ng/ml rhuMAb2H7: 1.88 O.D.
rhuMAb2H7 [28]
  Signal, O.D. 450-650 nm at 240 ng/ml rhuMAb2H7: 1.72 O.D.
rhuMAb2H7 [29]
  240 ng/ml 2H7 (O.D. 450-650 nm): 2.28 O.D.
rhuMAb2H7 [30]
  240 ng/ml 2H7 (O.D. 450-650 nm): 2.13 O.D.
rhuMAb2H7 [31]
  240 ng/ml 2H7 (O.D. 450-650 nm): 2.15 O.D.
rhuMAb2H7 [32]
  240 ng/ml 2H7 (O.D. 450-650 nm): 2 O.D.
